From publication PMC7615117, “DNSN-1 recruits GINS for CMG helicase assembly during DNA replication initiation in C. elegans” (Science (New York, N.Y.), 2023) come the findings set out here.

Assay in all cases: cryo-EM structure; CMG (125 nM) with fork DNA, AMP-PNP, TIM-1/TIPN-1 and DNSN-1 isoform c (each 1.3-fold molar excess), GraFix gradient with glutaraldehyde and BS3
What all share (conditions): both partners purified

One test addresses T1, MCM-3 (C. elegans, UniProt Q9XVR7 1-812).
T1 construct: MCM-3, C. elegans; Subunit of m11, written alone for its contacts in the structure; also called MCM-3 subunit of MCM-2-7; source: S. cerevisiae, purified as part of recombinant CMG
T1 sequence: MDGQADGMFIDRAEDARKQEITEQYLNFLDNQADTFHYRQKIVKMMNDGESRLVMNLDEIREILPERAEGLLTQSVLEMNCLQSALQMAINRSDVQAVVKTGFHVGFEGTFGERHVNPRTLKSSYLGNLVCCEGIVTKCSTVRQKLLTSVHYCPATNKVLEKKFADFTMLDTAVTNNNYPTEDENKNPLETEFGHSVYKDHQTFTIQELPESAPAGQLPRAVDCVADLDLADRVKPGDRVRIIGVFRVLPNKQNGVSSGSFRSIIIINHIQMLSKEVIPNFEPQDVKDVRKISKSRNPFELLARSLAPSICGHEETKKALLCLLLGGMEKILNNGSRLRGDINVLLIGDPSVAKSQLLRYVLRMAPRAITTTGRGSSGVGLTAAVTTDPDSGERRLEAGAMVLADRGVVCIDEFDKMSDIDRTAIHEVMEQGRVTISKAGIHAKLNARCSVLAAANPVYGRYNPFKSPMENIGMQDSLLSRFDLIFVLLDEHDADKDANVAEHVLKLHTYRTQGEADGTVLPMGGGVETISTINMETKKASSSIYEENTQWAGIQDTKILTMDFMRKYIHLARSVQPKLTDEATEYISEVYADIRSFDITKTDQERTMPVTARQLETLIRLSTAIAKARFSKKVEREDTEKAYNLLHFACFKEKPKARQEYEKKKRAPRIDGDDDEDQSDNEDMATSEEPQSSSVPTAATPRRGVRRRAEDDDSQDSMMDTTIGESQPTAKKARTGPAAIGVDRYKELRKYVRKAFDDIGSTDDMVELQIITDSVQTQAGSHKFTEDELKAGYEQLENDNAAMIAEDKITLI

The next test concerns the target T2, MCM-4 (C. elegans, UniProt Q95XQ8 1-823).
T2 construct: MCM-4, C. elegans; Subunit of m11, written alone for its interfaces in the structure; source: S. cerevisiae, purified as part of recombinant CMG
T2 sequence: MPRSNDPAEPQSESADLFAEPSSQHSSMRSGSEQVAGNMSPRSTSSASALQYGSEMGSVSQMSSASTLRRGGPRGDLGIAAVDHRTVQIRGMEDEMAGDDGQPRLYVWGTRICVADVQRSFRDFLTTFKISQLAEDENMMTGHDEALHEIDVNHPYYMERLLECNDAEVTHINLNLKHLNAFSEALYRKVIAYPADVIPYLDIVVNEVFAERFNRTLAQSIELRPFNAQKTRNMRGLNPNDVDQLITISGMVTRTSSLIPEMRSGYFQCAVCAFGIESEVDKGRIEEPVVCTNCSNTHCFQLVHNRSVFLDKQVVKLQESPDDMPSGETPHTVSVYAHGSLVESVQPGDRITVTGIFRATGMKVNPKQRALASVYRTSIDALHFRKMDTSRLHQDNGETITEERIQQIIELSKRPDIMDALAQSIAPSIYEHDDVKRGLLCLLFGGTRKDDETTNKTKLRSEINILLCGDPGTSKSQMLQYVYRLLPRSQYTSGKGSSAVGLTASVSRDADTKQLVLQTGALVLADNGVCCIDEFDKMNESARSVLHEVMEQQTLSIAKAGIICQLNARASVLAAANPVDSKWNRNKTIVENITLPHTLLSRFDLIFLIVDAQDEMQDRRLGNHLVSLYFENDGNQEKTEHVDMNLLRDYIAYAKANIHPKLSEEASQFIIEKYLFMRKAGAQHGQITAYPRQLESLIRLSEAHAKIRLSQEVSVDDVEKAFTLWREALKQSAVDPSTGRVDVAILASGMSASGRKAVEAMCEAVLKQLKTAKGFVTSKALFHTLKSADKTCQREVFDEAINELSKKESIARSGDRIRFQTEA

For another test, the target named is T3, TIM-1 (C. elegans, UniProt G5EDN3 1-1353).
T3 construct: TIM-1, C. elegans; Chain of m13, written alone for its contacts in the structure; source: S. cerevisiae, purified as part of the TIM-1_TIPN-1 complex
T3 sequence: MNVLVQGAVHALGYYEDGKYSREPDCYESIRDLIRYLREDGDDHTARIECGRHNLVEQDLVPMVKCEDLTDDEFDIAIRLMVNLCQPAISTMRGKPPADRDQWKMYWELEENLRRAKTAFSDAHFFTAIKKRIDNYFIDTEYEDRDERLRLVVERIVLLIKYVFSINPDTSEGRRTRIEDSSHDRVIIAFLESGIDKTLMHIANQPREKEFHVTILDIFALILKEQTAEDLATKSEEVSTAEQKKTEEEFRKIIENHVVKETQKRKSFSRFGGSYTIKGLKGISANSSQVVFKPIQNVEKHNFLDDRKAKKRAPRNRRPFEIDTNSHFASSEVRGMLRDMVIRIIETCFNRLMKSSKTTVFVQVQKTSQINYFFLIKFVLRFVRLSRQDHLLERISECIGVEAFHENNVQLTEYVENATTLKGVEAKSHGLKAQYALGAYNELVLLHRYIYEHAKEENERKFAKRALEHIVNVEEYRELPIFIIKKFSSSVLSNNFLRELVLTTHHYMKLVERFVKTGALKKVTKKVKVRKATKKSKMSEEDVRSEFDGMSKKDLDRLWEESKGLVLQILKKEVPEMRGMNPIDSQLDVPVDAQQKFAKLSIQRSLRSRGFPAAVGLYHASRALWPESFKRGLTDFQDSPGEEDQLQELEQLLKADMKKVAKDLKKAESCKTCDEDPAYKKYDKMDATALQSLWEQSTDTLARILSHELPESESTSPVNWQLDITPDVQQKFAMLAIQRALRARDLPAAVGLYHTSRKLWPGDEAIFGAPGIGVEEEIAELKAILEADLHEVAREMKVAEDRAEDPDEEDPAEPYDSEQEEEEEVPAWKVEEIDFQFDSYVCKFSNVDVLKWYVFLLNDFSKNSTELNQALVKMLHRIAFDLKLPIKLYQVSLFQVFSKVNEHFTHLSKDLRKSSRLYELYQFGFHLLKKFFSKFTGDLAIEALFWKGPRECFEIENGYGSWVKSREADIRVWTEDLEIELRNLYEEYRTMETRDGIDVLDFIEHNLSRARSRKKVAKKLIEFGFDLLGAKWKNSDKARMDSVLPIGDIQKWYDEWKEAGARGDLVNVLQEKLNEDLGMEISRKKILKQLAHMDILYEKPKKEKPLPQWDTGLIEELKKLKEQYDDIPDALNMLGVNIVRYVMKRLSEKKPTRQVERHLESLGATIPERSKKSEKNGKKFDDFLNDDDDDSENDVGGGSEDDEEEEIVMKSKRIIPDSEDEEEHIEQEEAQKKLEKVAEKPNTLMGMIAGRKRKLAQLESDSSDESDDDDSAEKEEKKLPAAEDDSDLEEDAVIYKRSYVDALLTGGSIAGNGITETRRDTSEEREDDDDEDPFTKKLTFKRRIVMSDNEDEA

B1: MCM-5 (natural protein, C. elegans)
chain: MSNLDNPGIYYQERFFANDGVPDTGRELIAEYRQLITQFRNFIRDFSTGGFGMIYRDQLKRNYFSHEYRLEINLNHLKNFDEDIEMKLRKFPGKVLPALEEAAKIVADEITTPRPKGEEKLHDIQVTLTLDEYPTSLRQVKSAQVSQVVKISGIIVAAAQVRSKATKVTLQCRQCKHTIPDVSIKPGLEGFALPRTCAAPQQGQMQRCPIDPYIMLPDKCECVDYQTLKLQENPEDVPHGEMPRHLQLFTERYLTDKVVPGNRVTIVGVYSIKKLIQKKGGDKSLQGIRTPYLRVLGIHMETSGPGRTNFTTFTPEEERMFKTLAQRKDAYELIAKSIAPSIYGSADIKKSIACLLFGGARKKLPDGITRRGDINVLLLGDPGTAKSQLLKFVEQVSPIGVYTSGKGSSAAGLTASVIRDPQSRSFIMEGGAMVLADGGVVCIDEFDKMREDDRVAIHEAMEQQTISIAKAGITTTLNSRCSVLAAANSVYGRWDESRGDDNIDFMPTILSRFDMIYIVKDTHDVLKDATLAKHVIEVHVNASAAKERDIAGVPKTATTDSDGVMTMFDTDGFLTIEFLKKFVTYARLNCGPRLTPQASEKLVNHYVKMRNPVVNADAFKSGKKAHNSAIPITVRQLEAIVRIAESIAKMELQQFATDKHVEEALRLFRVSTIEAAATGNLAGVEGFTSTADQEALNRIEVQMKKRFAIGTHVSEHLIVQDFVARQHYRESLVKKVIDNLVRRGDLQQKMQRKMLYRVR
notes: MCM-5, C. elegans; Subunit of m11, written alone for its interface in the structure; source: S. cerevisiae, purified as part of recombinant CMG
For the molecule B1, the binding result with MCM-3 is on record as “binds”.

B2: MCM-6 (natural protein, C. elegans)
chain: MDNIIGGQAQQVEDTDGTRVQNEFSKFLKSFKDQKNEFIYKSAMKELVQPEKNTIFINMQHLYKFSNNLATTIELQYYRVYPFMCEALHLATLDACDESERQQMFKKQLYVSLFNLDAKTKVRELSADKVGGLVRIAGQIVRTHPVHPELSRACFVCEDCGVTTRDVQQQFRYTQPTKCANPQCMNRTRFSLDVNSSTFVDFQKIRIQETQAELPRGSIPRTVDVIVRGEMVETVQPGDKCDIVGTLIVIPDIAQLSTPGLRAETSNQNRGRATDKSEGITGLKALGVRDLTYKMAFLACHIQQTESLVGGDASGAVEETDYLDLWSKMSTEDRATLKKMSDDKKIEKNIVDSLFPNIYGNHEVKLGVLLMLLGGVAKKSRDEGTSLRGDINVCLVGDPSTAKSQVLKAVEEFSPRAIYTSGKASSAAGLTAAVVKDEESFEFVIEAGALMLADNGVCCIDEFDKMDLKDQVAIHEAMEQQTISITKAGVKATLNARASILAAANPVNGRYDRSRPLKYNVQMSAPIMSRFDLFFVLVDECNEVTDYAIARRILDNHRAISEHTERDSVYKIDDIKKYIAFARCFKPKISDKAAETLVREYKKLRMSDSNNAATSSWRITVRQLESLVRLSEALARLHCGKEVLVEHVEKAAELLNKSIVRVEQPDIALDDDDFDNNIMVVEADKENQRGDDSMDHDGEKENAPKIDIAKLKISFKEYKQLSDVLVLHMRSDEDNQGEDEYDGVKQSALVEWYLSTIEADLETEEDFNVQKTICERVIHRLIHQDHVLLEVEQGEDPTLCVHPNYVIADE
notes: MCM-6, C. elegans; Subunit of m11, written alone for its interface in the structure; source: S. cerevisiae, purified as part of recombinant CMG
As to B2, in the test with MCM-4, the binding result is reported as “binds”.

B3: MCM-2 (natural protein, C. elegans)
chain: MADRANNDDDVDRQPLPIADDADDDVDGIDEMFNNEDEDPEDEEGENLFGDDMERDYREQPELDQYSESGMDDASDVGSLSVSARRAAEREMAQRDQLLDDDALMYEDGDSEEVDTRRRGRGRRGRGDAADDDSVPMEEEDIPVDILENIRGRTIRDHVSDEAVAKEIERRFKNFLRSFHEPGNKQTKYIQMIKSMAADNRESLEVSFTDLSDDNGEQNISYFLPEAPNEMLAIMDRAATEVVMNMYPFYSRVCNEIKVRISQLPVEEDIRMLRQVHLNMLIRTAGVVTIASGILPQLAVVKYDCVACGYLLGPFVQQNDEEVRPTICPSCQGKGPFELNVENTVYHNYQRITMQESPNKVAAGRLPRSKDVILLGDLCDSCKPGDEIEVTGVYTNNFDGSLNYKQGFPVFNTLIHANHITNKDKMASDQLTDEDIKAIRELSQDPNISQRVFSSIAPSIYGHDDVKRAIALALFRGEAKNPGAKHRLRGDINVLLCGDPGTAKSQFLRYAAHIAPRSVLTTGQGASAVGLTAYVQRHPVTREWTLEAGAMVLADKGVCLIDEFDKMSDQDRTSIHEAMEQQSISISKAGIVTSLHARCTVIAASNPIGGRYNPTRTFAENVDLTEPILSRFDVLCVIRDSVDSVEDERLAKFVVGNHRTHHPDAKKIVKEGDELEEDQMDERTGVRLIPQDLLRKYIIYAREKCHPTLPEQHSEKFSNIFAQMRKESMATGSVAITVRHVESMIRLSEAHAKLHLRSYVNDEDCAAAIRVMLESFVNTQKASIMRMMKKTFSRHLTENRSANELLLFILKQLIRQQMHYATARAAAGTILQSVTIPESEFIEKAQQLRIENVKPFYTSEIFASNNFLYDPSKKTIVQEIF
notes: MCM-2, C. elegans; Subunit of m11, written alone for its contacts in the structure; source: S. cerevisiae, purified as part of recombinant CMG
Take B3: the binding result with TIM-1 is given as “binds”.

B4: TIPN-1 (natural protein, C. elegans)
chain: MDEMEDFFENDELDREPSPMGDEAIEDNSGEGGTRRVVEPKLLRTKRLANPRLALNERILTGPKGISALRETLKDFKPNPKDDPYANLEKLMKKYAYWGHLMFPKMKTEDVLNRVETLGTRRQVKVFMIKHRLGETGEDSEHEEQENQKNGIIDDGASDNDDDLFKDLPEKEVTTEKAKNSEKSDQKTAEIDENVEEEYRMMEEERLREEQEAKEAADEDALMEDFGDMNNDW
notes: TIPN-1, C. elegans; Chain of m13, written alone; source: S. cerevisiae, purified as part of the TIM-1_TIPN-1 complex
On to B4, for which the binding result in the test with TIM-1 is listed as “binds”.
